Where “and” joins values, the source holds several entries; their conditions need not be identical. Identical values can stand only once. Like-named read-outs stand apart in the source and are kept apart here.
How the values were obtained:
Assay in all cases: peptide-array ELISA [Con't]
2…2RPGW = target: 2…2RPGW
CAPLRK2…2TREQNRI2T2RPC = target: CAPLRK2…2TREQNRI2T2RPC
CLSKQEG2RL2…2RLC = target: CLSKQEG2RL2…2RLC
LS2…2R = target: LS2…2R
PE2LS2…2TREQNRIC = target: PE2LS2…2TREQNRIC
SCGSR2…2 = target: SCGSR2…2
[1] = target: SDVV2…
[2] = target: SKQEGCRL2APGGSGGL2…
[3] = target: V2…
VPE2LS2…2…2 = target: VPE2LS2…2…2
[4] = target: …2…
2LS2…2R = target: 2LS2…2R
[5] = target: 2LS2…2…
2LSCGSR2…2T2 = target: 2LSCGSR2…2T2
2LSCGSR2…2T = target: 2LSCGSR2…2T
2TREQNRI2…2RL = target: 2TREQNRI2…2RL
2…2TREQNRIC = target: 2…2TREQNRIC
[6] = target: 2…
[7] = target: C22SK2…2CAPLRK2…
[8] = target: C22SK2…2CAV2…
[9] = target: C22SK2…2CNASMDAV2TSTSPTRC
[10] = target: C2LS2GSR2…2…
CDVV2KP2…2TSTSPTRC = target: CDVV2KP2…2TSTSPTRC
CG2RL2APLRK2…22SK2C = target: CG2RL2APLRK2…22SK2C
CGSR2…2 = target: CGSR2…2
[11] = target: CNASMDAV2…2…
CQA2TREQNRI2T2…2RLC = target: CQA2TREQNRI2T2…2RLC
[12] = target: CQTAQM22SK2SPGQHCQA2TREQNRI2T2RPC
CQTAQM22SK2…2RLC = target: CQTAQM22SK2…2RLC
CTSSTDI2RPHQI2…2TSTSPTRC = target: CTSSTDI2RPHQI2…2TSTSPTRC
CTV2DS2…2TSTSPTRC = target: CTV2DS2…2TSTSPTRC
[13] = target: DI2…
E2LS2…2…2 = target: E2LS2…2…2
[14] = target: E2LSCGSR2…
KQEG2…2APGTFSN = target: KQEG2…2APGTFSN
[15] = target: KQEGCRL2…2…
LS2…2…2 = target: LS2…2…2
[16] = target: LSCGSR2…
NRI2…2RL = target: NRI2…2RL
[17] = target: PE2LSCGSR2…
[18] = target: QEGCRL2…
S2…2RPGW = target: S2…2RPGW
V2…2NV = target: V2…2NV
[19] = target: WVPE2…
[20] = target: Y2…
…22SK2CNASMDAV2TSTSPTRC = target: …22SK2CNASMDAV2TSTSPTRC
…2LS2…2TSTSPTRC = target: …2LS2…2TSTSPTRC
…2N = target: …2N
…2R = target: …2R
…2SK2SPGQ = target: …2SK2SPGQ
…2TREQNRIC = target: …2TREQNRIC
…2TSTSPTRC = target: …2TSTSPTRC
[21] = target: …2…; remark: listed apart in the source

Chain of QEGCRL2… (peptide, as listed by the source): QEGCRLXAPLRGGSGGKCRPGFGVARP
Chain of LSCGSR2… (peptide, as listed by the source): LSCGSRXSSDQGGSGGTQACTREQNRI
Chain of DI2… (peptide, as listed by the source): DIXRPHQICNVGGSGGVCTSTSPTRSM
Chain of …2TREQNRIC (peptide, as listed by the source): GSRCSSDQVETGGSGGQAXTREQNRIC
Chain of …2N (peptide, as listed by the source): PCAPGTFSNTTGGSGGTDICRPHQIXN
Chain of …2TSTSPTRC (peptide, as listed by the source): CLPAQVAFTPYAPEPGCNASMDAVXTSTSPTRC
Chain of …2R (peptide, as listed by the source): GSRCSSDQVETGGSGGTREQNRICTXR
Chain of Y2… (peptide, as listed by the source): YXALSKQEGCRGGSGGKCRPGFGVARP

agonistic TNFR2 antibody MR2-1
Raw luminescence data (2…2RPGW): 224
Raw luminescence data (CAPLRK2…2TREQNRI2T2RPC): 220
Raw luminescence data (CLSKQEG2RL2…2RLC): 198
Raw luminescence data (LS2…2R): 218
Raw luminescence data (PE2LS2…2TREQNRIC): 224
Raw luminescence data (SCGSR2…2): 192
Raw luminescence data [1]: 203 and 196
Raw luminescence data [2]: 224
Raw luminescence data [3]: 222 and 197
Raw luminescence data (VPE2LS2…2…2): 206
Raw luminescence data [4]: 192
Raw luminescence data (2LS2…2R): 181
Raw luminescence data [5]: 190
Raw luminescence data (2LSCGSR2…2T2): 179
Raw luminescence data (2LSCGSR2…2T): 176
Raw luminescence data (2TREQNRI2…2RL): 186
Raw luminescence data (2…2TREQNRIC): 184
Raw luminescence data [6]: 179
Raw luminescence data [7]: 191
Raw luminescence data [8]: 181
Raw luminescence data [9]: 181
Raw luminescence data [10]: 187
Raw luminescence data (CDVV2KP2…2TSTSPTRC): 191
Raw luminescence data (CG2RL2APLRK2…22SK2C): 183
Raw luminescence data (CGSR2…2): 172
Raw luminescence data [11]: 173
Raw luminescence data (CQA2TREQNRI2T2…2RLC): 178
Raw luminescence data [12]: 176
Raw luminescence data (CQTAQM22SK2…2RLC): 179
Raw luminescence data (CTSSTDI2RPHQI2…2TSTSPTRC): 181
Raw luminescence data (CTV2DS2…2TSTSPTRC): 182
Raw luminescence data [13]: 174
Raw luminescence data (E2LS2…2…2): 181
Raw luminescence data [14]: 189
Raw luminescence data (KQEG2…2APGTFSN): 180
Raw luminescence data [15]: 191
Raw luminescence data (LS2…2…2): 187
Raw luminescence data [16]: 181
Raw luminescence data (NRI2…2RL): 184
Raw luminescence data [17]: 180
Raw luminescence data [18]: 173
Raw luminescence data (S2…2RPGW): 177
Raw luminescence data (V2…2NV): 177
Raw luminescence data [19]: 186 and 181
Raw luminescence data [20]: 175
Raw luminescence data (…22SK2CNASMDAV2TSTSPTRC): 173
Raw luminescence data (…2LS2…2TSTSPTRC): 188
Raw luminescence data (…2N): 175
Raw luminescence data (…2R): 180
Raw luminescence data (…2SK2SPGQ): 181 and 173
Raw luminescence data (…2TREQNRIC): 176
Raw luminescence data (…2TSTSPTRC): 172
Raw luminescence data [21]: 180

From patent publication US20250243290A1
